Data set [1] addresses T1, topoisomerase 2-binding protein 1 (TOPBP1) (human, UniProt Q92547 1-1522).
T1 construct: TOPBP1 in lysates of human cells, co-immunoprecipitated with Myc antibody
The data set is described as follows: co-IP with Myc antibody, Western blot. The method, then:
Resuspended cells were lysed by incubation with rotation for 1 hour at 4° C. For Benzonase treatment to remove DNA, samples were incubated in the lysis buffer described above supplemented with 25 U Benzonase nuclease (Novagen, Merck Millipore) for 2 hours at 4° C. Lysates were subjected to centrifugation at 13,000 rpm for 40 minutes at 4° C. to remove cell debris. The supernatant was then transferred to a fresh cold low bind 1.5 mL tube for subsequent immunoprecipitation. For immunoprecipitation, protein lysates were incubated with antibody for the protein of interest (10 μg per mL lysate) or IgG control (Refer to Tables 4 and 5 for the list of antibodies used in this study), preincubated with Dynabeads Protein G, as per manufacturer's instructions (Life Technologies), with rotation overnight at 4° C. The following day, beads were washed three times in cold lysis buffer and separated on a magnetic rack. Proteins were then eluted from the beads by resuspension in 50 mM Glycine pH 2.8 and sodium dodecyl sulphate (SDS) sample buffer (0.2 M Tris-Cl, pH 6.8, 28% glycerol, 13.5% β-mercaptoethanol, 6% SDS, 6 mM EGTA, and 0.07% bromophenol blue) for 10 minutes at 70° C. and subjected to Western blot analysis, as described below, to detect various protein interactions. […]
In general terms: Immunoblotting shows a protein as a band on a membrane.

In data set [2] the target is T2, ZNF827 full length (Homo sapiens, UniProt Q17R98 SEQ:1-1081).
T2 sequence: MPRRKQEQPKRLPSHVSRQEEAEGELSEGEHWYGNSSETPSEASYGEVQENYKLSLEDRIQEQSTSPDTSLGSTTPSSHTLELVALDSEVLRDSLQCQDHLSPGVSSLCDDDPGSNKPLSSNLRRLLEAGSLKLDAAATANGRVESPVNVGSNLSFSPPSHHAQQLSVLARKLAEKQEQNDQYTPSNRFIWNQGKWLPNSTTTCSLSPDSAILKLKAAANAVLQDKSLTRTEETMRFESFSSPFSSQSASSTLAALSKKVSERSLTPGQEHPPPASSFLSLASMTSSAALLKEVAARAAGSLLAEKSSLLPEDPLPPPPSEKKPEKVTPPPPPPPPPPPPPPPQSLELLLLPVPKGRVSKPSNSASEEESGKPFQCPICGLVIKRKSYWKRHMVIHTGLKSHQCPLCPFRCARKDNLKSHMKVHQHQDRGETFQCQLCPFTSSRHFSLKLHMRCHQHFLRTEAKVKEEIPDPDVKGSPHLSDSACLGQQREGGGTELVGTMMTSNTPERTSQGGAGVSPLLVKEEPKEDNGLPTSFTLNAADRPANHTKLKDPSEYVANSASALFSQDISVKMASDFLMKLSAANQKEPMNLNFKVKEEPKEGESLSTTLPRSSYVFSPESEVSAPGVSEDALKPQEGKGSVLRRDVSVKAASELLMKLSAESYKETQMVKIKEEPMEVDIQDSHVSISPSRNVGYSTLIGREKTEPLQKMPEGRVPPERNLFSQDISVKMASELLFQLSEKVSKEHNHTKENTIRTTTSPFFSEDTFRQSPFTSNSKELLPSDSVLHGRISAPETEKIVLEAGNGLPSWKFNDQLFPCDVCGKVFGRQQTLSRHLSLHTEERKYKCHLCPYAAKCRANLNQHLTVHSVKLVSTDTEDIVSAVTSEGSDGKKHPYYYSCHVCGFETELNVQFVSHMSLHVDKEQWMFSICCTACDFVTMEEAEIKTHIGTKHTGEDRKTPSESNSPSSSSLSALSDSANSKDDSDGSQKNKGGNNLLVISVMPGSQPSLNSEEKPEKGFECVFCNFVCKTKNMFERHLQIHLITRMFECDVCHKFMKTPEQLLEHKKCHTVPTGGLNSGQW
The data set is described as follows: EMSA; 0.8 mM ZnCl2, 100 mM KCl, poly(dI:dC), on ice. To be noted: tags: HaloTag (pHTN), expressed in HEK 293T, tag removed by HaloTEV cleavage; label: 32P (gamma). As for the experimental part:
(§1) Purified proteins were quantified using a BCA assay using the Pierce™ BCA Protein Assay Kit according to the manufacturer's instructions. Equal amounts of purified proteins were incubated in binding buffer (20 mM HEPES-KOH, pH7.9, 100 mM KCl, 0.8 mM ZnCl₂, 0.2 mM EDTA, 5% glycerol, 0.5 mM DTT and 0.5 mM PMSF) with 6.25 μg/mL poly (dI:dC) and 50 ng/μL BSA on ice for 20 minutes. ˜0.12 nM (˜2.5 fmol) γ-³²P labelled DNA oligonucleotide (see Table 3) probes were added to samples and incubated on ice for another 30 minutes. Binding reactions were loaded onto an 8% native acrylamide/bisacrylamide (19:1, Biorad) gel pre-run at 100V in 0.5× TB buffer (89 mM Tris, 89 mM boric acid) for 20 minutes. Gels were electrophoresed at 150 V for 150 minutes at 4° C., dried at 65° C. for 45 minutes, and then exposed to a Phosphor screen overnight. Gel images were obtained by scanning the screens with a Typhoon FLA9500 Imager (GE Life Sciences).
(In general: In EMSA bound probe runs differently from free probe, usually more slowly.)

Data set [3] has as its target T3, ZNF827 ZnF4-9 deleted (Homo sapiens).
T3 chain: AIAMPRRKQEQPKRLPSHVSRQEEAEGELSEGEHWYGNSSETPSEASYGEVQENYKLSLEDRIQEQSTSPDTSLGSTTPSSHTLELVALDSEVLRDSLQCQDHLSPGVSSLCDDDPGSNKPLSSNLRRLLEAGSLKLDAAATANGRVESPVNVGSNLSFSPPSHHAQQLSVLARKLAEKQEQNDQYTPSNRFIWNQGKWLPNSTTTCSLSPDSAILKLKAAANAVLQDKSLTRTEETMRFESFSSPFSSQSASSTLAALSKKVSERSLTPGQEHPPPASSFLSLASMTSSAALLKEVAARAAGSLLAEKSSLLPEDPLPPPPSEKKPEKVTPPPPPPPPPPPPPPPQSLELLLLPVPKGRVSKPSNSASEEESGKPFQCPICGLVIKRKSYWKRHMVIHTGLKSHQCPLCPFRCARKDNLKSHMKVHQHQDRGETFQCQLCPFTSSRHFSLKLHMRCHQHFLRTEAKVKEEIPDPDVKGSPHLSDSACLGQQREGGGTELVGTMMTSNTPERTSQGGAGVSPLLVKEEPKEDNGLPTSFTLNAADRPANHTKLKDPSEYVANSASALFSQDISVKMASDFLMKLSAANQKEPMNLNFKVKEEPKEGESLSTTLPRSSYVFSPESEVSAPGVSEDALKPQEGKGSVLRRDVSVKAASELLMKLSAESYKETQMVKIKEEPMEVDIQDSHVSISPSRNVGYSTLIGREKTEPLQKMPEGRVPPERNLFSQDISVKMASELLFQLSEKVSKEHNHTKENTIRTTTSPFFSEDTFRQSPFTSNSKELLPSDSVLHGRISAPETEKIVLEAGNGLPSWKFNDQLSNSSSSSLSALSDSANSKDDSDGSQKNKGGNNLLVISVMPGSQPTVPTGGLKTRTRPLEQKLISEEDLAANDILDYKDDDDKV
The data set is described as above. To be noted: tags: HaloTag (pHTN), expressed in HEK 293T, tag removed by HaloTEV cleavage; label: 32P (gamma). The method, then:
as §1

The target of data set [4] is T4, ZNF827 ZnF1-3 deleted (Homo sapiens, UniProt Q17R98 SEQ:4-997).
T4 chain: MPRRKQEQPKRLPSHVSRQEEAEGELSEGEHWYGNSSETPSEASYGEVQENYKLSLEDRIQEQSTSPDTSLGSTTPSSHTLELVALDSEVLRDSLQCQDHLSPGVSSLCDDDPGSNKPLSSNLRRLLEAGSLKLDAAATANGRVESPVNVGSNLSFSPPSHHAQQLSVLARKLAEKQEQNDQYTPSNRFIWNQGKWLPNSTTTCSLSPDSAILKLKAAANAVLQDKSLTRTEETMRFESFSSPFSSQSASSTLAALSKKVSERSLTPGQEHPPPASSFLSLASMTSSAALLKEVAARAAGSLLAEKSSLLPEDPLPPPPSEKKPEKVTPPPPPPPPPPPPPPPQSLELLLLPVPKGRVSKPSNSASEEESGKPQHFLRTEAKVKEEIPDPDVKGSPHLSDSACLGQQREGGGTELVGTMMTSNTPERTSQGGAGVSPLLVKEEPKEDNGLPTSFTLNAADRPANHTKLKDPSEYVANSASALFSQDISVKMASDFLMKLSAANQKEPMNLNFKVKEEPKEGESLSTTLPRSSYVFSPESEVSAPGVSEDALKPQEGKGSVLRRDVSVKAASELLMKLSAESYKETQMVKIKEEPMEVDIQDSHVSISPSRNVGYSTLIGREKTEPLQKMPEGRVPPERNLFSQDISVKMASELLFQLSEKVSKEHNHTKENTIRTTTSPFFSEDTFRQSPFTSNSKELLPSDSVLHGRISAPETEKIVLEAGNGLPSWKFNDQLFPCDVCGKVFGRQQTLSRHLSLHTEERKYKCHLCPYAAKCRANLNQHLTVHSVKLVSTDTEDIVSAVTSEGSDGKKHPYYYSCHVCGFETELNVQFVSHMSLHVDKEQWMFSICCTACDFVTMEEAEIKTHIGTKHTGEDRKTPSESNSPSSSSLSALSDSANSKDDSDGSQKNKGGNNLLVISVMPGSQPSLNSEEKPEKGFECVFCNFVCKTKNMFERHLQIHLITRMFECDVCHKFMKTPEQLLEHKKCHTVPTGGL
The data set is described as follows: EMSA; binding abrogated. As to conditions: tags: HaloTag (pHTN), expressed in HEK 293T, tag removed by HaloTEV cleavage; label: 32P (gamma). The method, then:
as §1

T1 sequence (Q92547 whole entry): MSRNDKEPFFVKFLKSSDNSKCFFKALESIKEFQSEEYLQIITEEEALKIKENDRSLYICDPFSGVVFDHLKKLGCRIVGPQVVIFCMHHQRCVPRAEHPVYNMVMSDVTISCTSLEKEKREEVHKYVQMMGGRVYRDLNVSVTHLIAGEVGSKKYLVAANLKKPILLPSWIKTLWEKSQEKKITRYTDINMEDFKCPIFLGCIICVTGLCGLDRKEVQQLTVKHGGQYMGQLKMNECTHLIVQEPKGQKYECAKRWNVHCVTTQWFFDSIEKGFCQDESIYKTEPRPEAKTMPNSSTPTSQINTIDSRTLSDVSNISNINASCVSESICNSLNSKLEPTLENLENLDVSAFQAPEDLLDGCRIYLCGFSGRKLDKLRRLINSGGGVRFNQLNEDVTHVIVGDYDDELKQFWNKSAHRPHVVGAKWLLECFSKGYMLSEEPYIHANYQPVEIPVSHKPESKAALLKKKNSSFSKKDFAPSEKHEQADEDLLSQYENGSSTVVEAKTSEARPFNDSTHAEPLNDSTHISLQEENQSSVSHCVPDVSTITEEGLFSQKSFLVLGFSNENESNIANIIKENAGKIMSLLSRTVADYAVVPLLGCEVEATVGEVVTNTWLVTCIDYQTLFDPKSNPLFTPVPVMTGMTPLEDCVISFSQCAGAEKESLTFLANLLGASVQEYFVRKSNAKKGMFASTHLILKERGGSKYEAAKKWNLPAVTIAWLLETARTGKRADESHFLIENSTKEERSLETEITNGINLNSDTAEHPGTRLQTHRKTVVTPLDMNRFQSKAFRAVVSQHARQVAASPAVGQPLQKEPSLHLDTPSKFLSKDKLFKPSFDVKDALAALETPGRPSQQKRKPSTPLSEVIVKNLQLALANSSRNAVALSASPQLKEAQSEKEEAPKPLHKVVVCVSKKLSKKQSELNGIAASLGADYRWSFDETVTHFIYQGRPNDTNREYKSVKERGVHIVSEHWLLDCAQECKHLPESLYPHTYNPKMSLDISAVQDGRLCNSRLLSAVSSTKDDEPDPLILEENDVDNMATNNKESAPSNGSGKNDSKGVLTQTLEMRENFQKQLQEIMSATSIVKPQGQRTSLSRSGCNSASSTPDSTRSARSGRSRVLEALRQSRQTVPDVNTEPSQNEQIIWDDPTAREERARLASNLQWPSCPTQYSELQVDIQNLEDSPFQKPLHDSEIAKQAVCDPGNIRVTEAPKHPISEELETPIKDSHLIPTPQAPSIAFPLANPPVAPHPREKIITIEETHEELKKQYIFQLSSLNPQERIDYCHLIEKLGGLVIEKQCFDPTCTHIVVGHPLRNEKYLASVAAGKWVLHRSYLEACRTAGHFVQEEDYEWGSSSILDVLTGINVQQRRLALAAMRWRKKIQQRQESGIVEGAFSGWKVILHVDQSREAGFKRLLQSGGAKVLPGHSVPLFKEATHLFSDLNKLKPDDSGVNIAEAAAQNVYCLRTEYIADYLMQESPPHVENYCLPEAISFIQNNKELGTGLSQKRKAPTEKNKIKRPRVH

B1: ZNF827 full length (human zinc finger protein ZNF827) (other)
chain: T2 sequence
notes: Co-IPs used lysates of human cells (U-2 OS, HT1080) from overexpression experiments; also called Myc-DDK-tagged ZNF827 full length; pCMV6 Myc-DDK-tagged ZNF827 (RC221405); not shown: Myc-DDK tag of the pCMV6 vector
Consider B1, for which, in data set [1], the binding result is reported as “binds”.

B2: ss pentaprobe 9 (ssDNA)
DNA: ATGGGTAGGATAGGCGAGGCCAGACCAGCGGAGCAGGGGAGGGTTAGACGAGACTAGATCGAACTCAACGATTGAATGCACAGGACAGTAGAATAGAGCG
Consider B2, for which the binding result is on record as “binds” in data set [2], “binds” in data set [3] and “no binding” in data set [4].

B3: ss pentaprobe 3 (ssDNA)
DNA: CGCTCTATTCTACTGTCCTGTGCATTCAATCGTTGAGTTCGATCTAGTCTCGTCTAACCCTCCCCTGCTCCGCTGGTCTGGCCTCGCCTATCCTACCCAT
Take B3: the results for the binding result in data set [2], in data set [3] and in data set [4] were “binds”, “binds” and “no binding”, respectively.

(Values after patent US20220305003A1, “METHODS OF TREATING CANCER WITH AN INHIBITOR OF ZNF827” (CHILDREN'S MEDICAL RESEARCH INSTITUTE, priority 2019, published 2022).)
